First the molecules themselves.
B1: eGFP-53BP1 (wild-type TP53-binding protein 1 tagged with enhanced green fluorescent protein) [not stated] / itself (parent)
chain: MDPTGSQLDSDFSQQDTPCLIIEDSQPESQVLEDDSGSHFSMLSRHLPNLQTHKENPVLDVVSNPEQTAGEERGDGNSGFNEHLKENKVADPVDSSNLDTCGSISQVIEQLPQPNRTSSVLGMSVESAPAVEEEKGEELEQKEKEKEEDTSGNTTHSLGAEDTASSQLGFGVLELSQSQDVEENTVPYEVDKEQLQSVTTNSGYTRLSDVDANTAIKHEEQSNEDIPIAEQSSKDIPVTAQPSKDVHVVKEQNPPPARSEDMPFSPKASVAAMEAKEQLSAQELMESGLQIQKSPEPEVLSTQEDLFDQSNKTVSSDGCSTPSREEGGCSLASTPATTLHLLQLSGQRSLVQDSLSTNSSDLVAPSPDAFRSTPFIVPSSPTEQEGRQDKPMDTSVLSEEGGEPFQKKLQSGEPVELENPPLLPESTVSPQASTPISQSTPVFPPGSLPIPSQPQFSHDIFIPSPSLEEQSNDGKKDGDMHSSSLTVECSKTSEIEPKNSPEDLGLSLTGDSCKLMLSTSEYSQSPKMESLSSHRIDEDGENTQIEDTEPMSPVLNSKFVPAENDSILMNPAQDGEVQLSQNDDKTKGDDTDTRDDISILATGCKGREETVAEDVCIDLTCDSGSQAVPSPATRSEALSSVLDQEEAMEIKEHHPEEGSSGSEVEEIPETPCESQGEELKEENMESVPLHLSLTETQSQGLCLQKEMPKKECSEAMEVETSVISIDSPQKLAILDQELEHKEQEAWEEATSEDSSVVIVDVKEPSPRVDVSCEPLEGVEKCSDSQSWEDIAPEIEPCAENRLDTKEEKSVEYEGDLKSGTAETEPVEQDSSQPSLPLVRADDPLRLDQELQQPQTQEKTSNSLTEDSKMANAKQLSSDAEAQKLGKPSAHASQSFCESSSETPFHFTLPKEGDIIPPLTGATPPLIGHLKLEPKRHSTPIGISNYPESTIATSDVMSESMVETHDPILGSGKGDSGAAPDVDDKLCLRMKLVSPETEASEESLQFNLEKPATGERKNGSTAVAESVASPQKTMSVLSCICEARQENEARSEDPPTTPIRGNLLHFPSSQGEEEKEKLEGDHTIRQSQQPMKPISPVKDPVSPASQKMVIQGPSSPQGEAMVTDVLEDQKEGRSTNKENPSKALIERPSQNNIGIQTMECSLRVPETVSAATQTIKNVCEQGTSTVDQNFGKQDATVQTERGSGEKPVSAPGDDTESLHSQGEEEFDMPQPPHGHVLHRHMRTIREVRTLVTRVITDVYYVDGTEVERKVTEETEEPIVECQECETEVSPSQTGGSSGDLGDISSFSSKASSLHRTSSGTSLSAMHSSGSSGKGAGPLRGKTSGTEPADFALPSSRGGPGKLSPRKGVSQTGTPVCEEDGDAGLGIRQGGKAPVTPRGRGRRGRPPSRTTGTRETAVPGPLGIEDISPNLSPDDKSFSRVVPRVPDSTRRTDVGAGALRRSDSPEIPFQAAAGPSDGLDASSPGNSFVGLRVVAKWSSNGYFYSGKITRDVGAGKYKLLFDDGYECDVLGKDILLCDPIPLDTEVTALSEDEYFSAGVVKGHRKESGELYYSIEKEGQRKWYKRMAVILSLEQGNRLREQYGLGPYEAVTPLTKAADISLDNLVEGKRKRRSNVSSPATPTASSSSSTTPTRKITESPRASMGVLSGKRKLITSEEERSPAKRGRKSATVKPGAVGAGEFVSPCESGDNTGEPSALEEQRGPLPLNKTLFLGYAFLLTMATTSDKLASRSKLPDGPTGSSEEEEEFLEIPPFNKQYTESQLRAGAGYILEDFNEAQCNTAYQCLLIADQHCRTRKYFLCLASGIPCVSHVWVHDSCHANQLQNYRNYLLPAGYSLEEQRILDWQPRENPFQNLKVLLVSDQQQNFLELWSEILMTGGAASVKQHHSSAHNKDIALGVFDVVVTDPSCPASVLKCAEALQLPVVSQEWVIQCLIVGERIGFKQHPKYKHDYVSH

The values below come from PMC7666136.

The variants in the assay derive from B1. Description: Homo-FRET (FAIM, fluorescence anisotropy imaging) in live DIvA cells. Particulars: with itself; live DIvA cell nuclei, N = 5 cells, two biological replicates; value is the box median; read off a plot.
Turning to chain 1 Y1258A Y1259A, the screen value turned out to be 0.01 delta r.
